In assay [1] the target is T1, rMOR-1C1 (rat).
T1 construct: whole, on cells
The assay is described as follows: competition against [3H]DAMGO (~1 nM), membranes of stable CHO transfectants. How it is done:
(§1) ANOVA was performed, followed by Tukey's post hoc analysis. Results are the mean ±S.E. of at least three independent determinations.

Assay [2] deals with T2, rMOR-1D (rat).
T2 construct: whole, on cells
Described as above. Here is the method: as §1

The target in assay [3] is T3, rMOR-1 (no Exon 4) (rat, UniProt P33535 1-386, limits assumed).
T3 construct: domain: no Exon 4; also called rMOR-1 no E 4; rMOR-1 (no E4)
The assay is described as above. Here is the method:
as §1

For assay [4], the target named is T4, rMOR-1A (rat).
T4 chain: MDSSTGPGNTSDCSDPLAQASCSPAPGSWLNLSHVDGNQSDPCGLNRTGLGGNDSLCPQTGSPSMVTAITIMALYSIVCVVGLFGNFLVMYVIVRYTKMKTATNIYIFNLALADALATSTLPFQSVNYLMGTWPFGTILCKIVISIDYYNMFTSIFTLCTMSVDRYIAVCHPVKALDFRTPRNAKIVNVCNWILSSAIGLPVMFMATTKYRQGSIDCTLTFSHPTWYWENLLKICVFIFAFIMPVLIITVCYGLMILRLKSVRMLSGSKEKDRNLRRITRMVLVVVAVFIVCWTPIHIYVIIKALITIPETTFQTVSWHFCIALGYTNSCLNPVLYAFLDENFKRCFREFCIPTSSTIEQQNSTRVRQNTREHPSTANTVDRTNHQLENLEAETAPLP
The assay is described as above. How it is done: as §1

Assay [5] addresses T1, rMOR-1C1. The assay is described as follows: cell-based or functional assay.
The target in assay [6] is T2, rMOR-1D. Nature of the assay: cell-based or functional assay.
The target of assay [7] is T3, rMOR-1 (no Exon 4). Nature of the assay: cell-based or functional assay.
Another assay addresses rMOR-1 (rat, UniProt P33535 1-398). The assay is described as follows: cell-based or functional assay.
The target of assay [8] is T4, rMOR-1A. The assay is described as follows: cell-based or functional assay.
Another assay deals with hMOR-1A (human). The assay is described as follows: cell-based or functional assay.
Another assay concerns the target hMOR-1B1 (human, UniProt P35372 1-388). The assay is described as follows: cell-based or functional assay.
A further assay addresses hMOR-1 (exons 1-3) (human, UniProt P35372 1-388). The assay is described as follows: cell-based or functional assay.
Another assay deals with hMOR-1B3 (human, UniProt P35372 1-388). Nature of the assay: cell-based or functional assay.
The target in a further assay is hMOR-1B4 (human, UniProt P35372 1-388). Nature of the assay: cell-based or functional assay.
For another assay, the target named is hMOR-1B2 (human, UniProt P35372 1-388). Nature of the assay: cell-based or functional assay.
For a further assay, the target named is hMOR-1B5 (human, UniProt P35372 1-388). The assay is described as follows: cell-based or functional assay.
In a further assay the target is hMOR-1Y (human, UniProt P35372 1-388). Nature of the assay: cell-based or functional assay.
In another assay the target is hMOR-1 (human, UniProt P35372 1-400). Nature of the assay: cell-based or functional assay.

B1: β-Endorphin (peptide, UniProt P01189 237-267, looked up)
peptide: YGGFMTSEKSQTPLVTLFKNAIIKNAYKKGE
notes: also called B-Endorphin
For B1, the Ki (as a rule, the dissociation constant of the complex between target and ligand, obtained from inhibition or displacement) with rMOR-1C1 [1] was 8.8 nM; in the assay with rMOR-1D [2], 8.5 nM; with rMOR-1 (no Exon 4) [3] it was 10 nM; with rMOR-1A [4], 10.5 nM. The “Max Stim (%)” value in the assay with rMOR-1C1 [5] was 361%; with rMOR-1D [6] it was 165%; with rMOR-1 (no Exon 4) [7], 240%; with rMOR-1, 246%; in the assay with rMOR-1A [8], 177%. Besides, the “EC50 (nM), stimulation of [35S]GTPγS binding” value was 91 nM with rMOR-1D [6], 90 nM in the assay with rMOR-1 (no Exon 4) [7] and 4 nM with rMOR-1. Also, the “Max Inhib (%)” value in the assay with hMOR-1A turned out to be 73%; in the assay with hMOR-1B1, 65%; with hMOR-1 (exons 1-3) it was 73%; with hMOR-1B3, 73%; with hMOR-1B4, 69%; with hMOR-1B2, 65%. Further, the “Max Inhib (%)” value in the assay with hMOR-1B5 turned out to be 69%; with hMOR-1Y, 90%; in the assay with hMOR-1, 79%.

The values above are taken from US20070258988A1 (SLOAN KETTERING INSTITUTE FOR CANCER RESEARCH, published 2007).
